# System: Escherichia coli TOP10
# Assay: shrunken log2 fold change of peptide-encoding DNA abundance (4.5 h post-induction vs induction); higher = less antimicrobial activity (less host growth inhibition)
# Settings: time post-induction: 4.5 h; library: site-saturation at positions 5, 18, 19, 20
# 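Further: peptides expressed intracellularly from a pBAD plasmid library in pooled LB shake-flask culture, induced with 0.3% L-arabinose, DNA abundance read by NGS, three biological replicates, DESeq2 with apeglm shrinkage.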
row,Sequence,shrunken log2 fold change
1,RRIRYRPPRLPRPRPRPWWIPRP,-0.00327
2,RRIRYRPPRLPRPRPRPYCNPRP,-0.515
3,RRIRYRPPRLPRPRPRPYCQPRP,-0.465
4,RRIRYRPPRLPRPRPRPYGIPRP,-0.064
5,RRIRYRPPRLPRPRPRPYHAPRP,-0.194
6,RRIRYRPPRLPRPRPRPYHDPRP,-0.386
7,RRIRYRPPRLPRPRPRPYHQPRP,-0.662
8,RRIRYRPPRLPRPRPRPYHTPRP,-0.0274
9,RRIRYRPPRLPRPRPRPYITPRP,-0.529
10,RRIRYRPPRLPRPRPRPYLEPRP,-1.7
11,RRIRYRPPRLPRPRPRPYMGPRP,-0.019
12,RRIRYRPPRLPRPRPRPYNMPRP,-1.09
13,RRIRYRPPRLPRPRPRPYNVPRP,-0.0198
14,RRIRYRPPRLPRPRPRPYPHPRP,-0.112
15,RRIRYRPPRLPRPRPRPYPWPRP,0.0116
16,RRIRYRPPRLPRPRPRPYQKPRP,-0.0257
17,RRIRYRPPRLPRPRPRPYRAPRP,-0.0919
18,RRIRYRPPRLPRPRPRPYSDPRP,-0.237
19,RRIRYRPPRLPRPRPRPYSLPRP,-0.335
